Results on five substances are retold here after patent US12465646B2, “Linkers” (Oxford University Innovation Limited, priority 2018, dated 2025).

In one series the test system is exon skipping. To be noted: in a conjugate with a therapeutic molecule; cited from earlier work.
The conditions of series [1]: CPP carrier; cited from earlier work.
A short description of series [2]: Recovery time of mice after intravenous injection of peptide-PMO-CAG7. In kind it is in vivo, C57BL6 mice. Here is the method: Animal experiments and ASO injections. Experiments were carried out in the University of Oxford according to UK legislation. The intravenous injections in HSA-LR C57BL/6 mice were performed by single or repeated administrations via the tail vein. Doses of 30, 12.5, 7.5 and 5 mg/kg of peptide-PMO-CAG7 (SEQ ID NO: 81) were diluted in 0.9% saline and given at a volume of 5-6 μL/g of body weight. KIM-1 levels in C57BL6 female mice measured by ELISA (R&D cat #MKM100) with samples diluted to fit within standard curve. Values were normalised to urinary creatinine levels (Harwell) to account for urine protein concentration.

Another series has as its system human hepatocytes. Briefly: Hepatocyte cell viability. It is filed as cell-based. The conditions noted are these: 40 μM. Here is the method:
Immortalized myoblasts from healthy individual or DM1 patient with 2600 CTG repeats were cultivated in a growth medium consisting of a mix of M199:DMEM (1:4 ratio; Life technologies) supplemented with 20% FBS (Life technologies), 50 μg/ml gentamycin (Life technologies), 25 μg/ml fetuin, 0.5 ng/ml bFGF, 5 ng/ml EGF and 0.2 μg/ml dexamethasone (Sigma-Aldrich). Myogenic differentiation was induced by switching confluent cell cultures to DMEM medium supplemented with 5 μg/ml insulin (Sigma-Aldrich) for myoblasts. For treatment, WT or DM1 cells are differentiated for 4 days. Then, medium was changed with fresh differentiation medium with peptide-PMOs at a 1, 2, 5 10, 20 or 40 μM concentration. Cells were harvested for analysis 48 h after treatment. Cell viability was quantified in after 2 days of transfection of peptide-PMOs at 40 μM in human hepatocytes or at a 1, 2, 5 10, 20 or 40 μM concentration in human myoblasts using a fluorescent-based assay (Promega).

Where no end group is shown, it is not given here. [ ]: non-standard residue; d: D form. GABA = NCCCC(=O)O; βAla = NCCC(=O)O

For the substance “Ac-RRRRRR-(G) (Ac-RRRRRRG; also: conjugated therapeutic molecule via glycine linker) [R6Gly]”, the “efficacy in inducing exon skipping” value in the series with exon skipping was “reduced efficacy”. Besides, the toxicity entry in series [1] is listed as “reduced toxicity”.
On to “Ac-RBRRBRRFQILYRBHBH-Ab (Ac-R[βAla]RR[βAla]RRFQILYR[βAla]H[βAla]H-{GABA-(CAG)7 PMO}) [DPEP3.1a]”, for which the “recovery time after injection, time AV ± SD” value (“recovery time … time AV ± SD” below) in series [2] (30 mg/kg, WT mouse, 8-12 weeks) is 10 min.
Turning to “Ac-RXRRBRRXR-YQFLI-RXRBRXR-(B) [pip6a, reference compound]”, the “recovery time … time AV ± SD” value in series [2] (12.5 mg/kg, HSA-LR mouse, 8-12 weeks) is given as over 60 min. Besides, the “percentage hepatocyte cell viability” value with human hepatocytes is given as “cell mortality”.
With Ac-RBRRBRFQILYBRBR-B [DPEP1.9], the “recovery time … time AV ± SD” value in series [2] (7.5 mg/kg, HSA-LR mouse, 8-12 weeks) is 0 min; in series [2] (30 mg/kg, HSA-LR mouse, 30 weeks), over 60 min; in series [2] (4× 7.5 mg/kg repeated injections, HSA-LR mouse, 8-12 weeks), 0 min; in series [2] (6× 5 mg/kg repeated injections, HSA-LR mouse, 8-12 weeks) it was 0 min.
For “Ac-RBRRBRFQILYBRBR-E (Ac-R[βAla]RR[βAla]RFQILY[βAla]R[βAla]RE; also: Glu linker to [CAG]7 PMO, attachment not given here) [DPEP1.9b]”, the “recovery time … time AV ± SD” value in series [2] (30 mg/kg, WT mouse, 8-12 weeks) is recorded as 15 min.
